Source: patent publication US20030134774A1, “Methods for inhibiting cardiac disorders” (priority 2001, published 2003)

Target: T1, PKC-ε (Rattus norvegicus, UniProt P09216)
T1 construct: endogenous in cells; host or cells: cultured neonatal rat ventricular cardiomyocytes
T1 sequence (P09216 1-737): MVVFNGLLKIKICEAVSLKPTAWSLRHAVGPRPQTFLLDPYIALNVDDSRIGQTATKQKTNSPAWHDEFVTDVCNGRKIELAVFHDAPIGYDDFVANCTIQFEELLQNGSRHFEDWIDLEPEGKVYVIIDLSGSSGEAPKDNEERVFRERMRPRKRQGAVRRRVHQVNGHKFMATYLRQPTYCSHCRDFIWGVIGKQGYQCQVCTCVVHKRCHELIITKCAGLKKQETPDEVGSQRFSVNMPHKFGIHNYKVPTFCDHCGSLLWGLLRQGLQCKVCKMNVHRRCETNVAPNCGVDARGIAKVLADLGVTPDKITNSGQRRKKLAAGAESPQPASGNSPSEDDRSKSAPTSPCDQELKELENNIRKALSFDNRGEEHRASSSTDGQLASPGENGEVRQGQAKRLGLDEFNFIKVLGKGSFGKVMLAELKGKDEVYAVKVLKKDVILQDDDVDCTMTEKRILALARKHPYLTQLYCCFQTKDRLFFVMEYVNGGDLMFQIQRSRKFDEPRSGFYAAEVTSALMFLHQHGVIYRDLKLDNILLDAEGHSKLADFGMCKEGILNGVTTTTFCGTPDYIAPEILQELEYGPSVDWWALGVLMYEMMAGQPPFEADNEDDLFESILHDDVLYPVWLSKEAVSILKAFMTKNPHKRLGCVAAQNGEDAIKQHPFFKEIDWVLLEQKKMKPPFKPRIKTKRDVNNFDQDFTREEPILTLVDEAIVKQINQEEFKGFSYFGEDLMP
Experiment: Western blot with anti-phospho-PKC antibody in cardiomyocytes
Assay type: cell-based
Conditions: 400 ng/ml, 24 hr
Experimental: rPMT selectively activates nPKC isoforms. Cardiomyocyte cultures were incubated in culture medium without or with NE (10 μM), rPMT (400 ng/ml) or PMA (100 nM) for 24 hr (Panels A and C) or 5 min (Panel B). Soluble extracts were prepared and separated by SDS-PAGE followed by immunodetection of total PKC isoform abundance with antibodies that are specific for the individual PKC isoforms (Panel A), or phosphorylated forms of PKC (largely PKCε) with a pan-phospho-PKC antibody (Panels B and C), as described in Methods below. GF109203 was included at 5 μM 30 min prior to stimulation as indicated.
Specific immunoreactivity for individual PKC isoforms was quantified according to methods described previously. For assays of MAPKs and AKT, cells were exposed to test agents as indicated in individual experimental protocols, washed three times with ice-cold calcium/magnesium-free Dulbecco's PBS (pH 7.1), scraped into ice-cold extraction buffer [20 mM β-glycerophosphate pH 7.5, 20 mM sodium fluoride, 2 mM EDTA, 0.2 mM sodium vanadate, 10 μg/ml aprotinin, 25 μg/ml leupeptin, 50 μg/ml PMSF, and 0.3% (v/v) β-mercaptoethanol], lysed by sonication, and centrifuged at 10,000 g for 10 min at 4° C. The supernatant was diluted in SDS-PAGE sample buffer, boiled for 5 min, and stored at −70° C. […] Bands were detected by enhanced chemiluminescence and blots were quantified by laser scanning densitometry.

B1: rPMT: recombinant Pasteurella multocida toxin, a Gαq agonist used as pharmacological probe (protein, UniProt P17452 1-1285, looked up)
Dermonecrotic toxin: MKTKHFFNSDFTVKGKSADEIFRRLCTDHPDKQLNNVKWKEVFINRFGQMMLDTPNPRKIVEKIINEGLEKQGLKNIDPETTYFNIFSSSDSSDGNVFHYNSLSESYRVTDACLMNIFVERYFDDWDLLNSLASNGIYSVGKEGAYYPDHDYGPEYNPVWGPNEQIYHSRVIADILYARSVWDEFKKYFMEYWQKYAQLYTEMLSDTFLAMAIQQYTRQTLTDEGFLMVCNTYYGNKEEVQITLLDIYGYPSTDIICIEQKGLPTPKVILYIPGGTQPFVEFLNTDDLKQWIAWHLKDNKHMVAFRKHFSLKQRQEGETFTGIDKALQYIAEESPEWPANKYILYNPTHLETENLFNIMMKRTEQRMLEDSDVQIRSNSEATRDYALSLLETFISQLSAIDMLVPAVGIPINFALSATALGLSSDIVVNGDSYEKRKYGIGSLVQSALFTGINLIPVISETAEILSSFSRTEEDIPAFFTEEQALAQRFEIVEEELHSISPDDPPREITDENLHKIRLVRLNNENQPLVVLRRLGGNKFIRIEPITFQEIKGSLVSEVINPVTNKTYYVSNAKLLGGSPYSPFRIGLEGVWTPEVLKARASVIGKPIGESYKRILAKLQRIHNSNILDERQGLMHELMELIDLYEESQPSSERLNAFRELRTQLEKALYLPEMEALKKQILQIPNKGSGAARFLLRTAMNEMAGKTSESTADLIRFALQDTVISAPFRGYAGAIPEAIDFPVKYVIEDISVFDKIQTNYWELPAYESWNEGSNSALLPGLLRESQSKGMLSKCRIIENSLYIGHSYEEMFYSISPYSNQVGGPYELYPFTFFSMLQEVQGDLGFEQAFATRNFFNTLVSDRLSLMENTMLLTESFDYTPWDAIYGDINYDEQFAAMSINERIEKCMNTYRGVAFQNSSKSIDFFLNNLTTFIDNGLTEIAISDLPYDIVQQEISQFLQGSNEWKTLDAMLFNLDKGDINGAFRKLLQSAKDNNIKFRAIGHSDNSVPPFNNPYKSLYYKGNIIAEAIEKLDREGQKFVVFADSSLLNSTPGTGRPMPGLVQYLKIPATVVDSDGAWQFLPDVASSRVPIEVTELENWQVLTPPQGKILGLKQFKLTAGFPTEQSRLPLLENSVSEDLREELMQKIDAIKNDVKMNSLVCMEAGSCDSVSPKVAARLKDMGLEAGMGASITWWRREGGMEFSHQMHTTASFKFAGKEFAVDASHLQFVHDQLDTTILILPVDDWALEIAQRNRAINPFVEYVSKTGNMLALFMPPLFTKPRLTRAL
  PKC-ε phosphorylation: enhanced
